Laboratory results as given in patent US20090068174A1, “THERAPEUTIC ALKALINE PROTEASE COMPOSITIONS AND USE IN FACILITATING THE TRANSPORT OF AGENTS ACROSS THE GASTROINTESTINAL MUCOSAL LINING” (Kansas University Medical Center Research Institute, Inc., priority 2007, published 2009).

Experiments:
human TNF-α [1] = biological target: T1, human TNF-α (Homo sapiens, UniProt P01375); assay: Human TNF-α hydrolysis (Western blotting); format: biochemical; conditions: 50 ng cytokine with 2.5, 5, 10 ng protease, overnight at 37° C., Western blot
T1 sequence (P01375 77-233 limits assumed): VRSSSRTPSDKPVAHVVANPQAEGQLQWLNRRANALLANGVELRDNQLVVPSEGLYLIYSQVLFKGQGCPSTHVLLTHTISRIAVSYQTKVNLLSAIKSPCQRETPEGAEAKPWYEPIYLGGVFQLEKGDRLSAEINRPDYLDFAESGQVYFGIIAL
Description: Effects of the purified A. oryzae proteases on human recombinant TNF-α: (A) protease powder prepared according to Example 1 (preparation); (B) alkaline protease; (C) 26 kDa protease; and (D) deuterolysin. 50 ng quantities of TNF-α were incubated at 37° C. for 18 hours with the indicated quantities of protease powder prepared according to Example 1, alkaline protease, 26 kDa protease or deuterolysin. Western blotting was then used to determine substrate specificity. C=control, buffer-treated TNF-α.
Human TNF-α is cleaved and inactivated by Aspergillus oryzae alkaline protease. Purified cytokine (50 ng) was first combined with the following amounts [2.5, 5, and 10 ng] of protease powder prepared according to Example 1 (preparation), as well as alkaline protease, 26 kDa protease, and deuterolysin prepared according to Example 2. Each mixture was incubated overnight at 37° C. and examined by Western blotting for evidence of proteolysis. […] Because the antibody used in this Western blot was specific for the carboxyl terminus of human TNF-α, these enzymes cleaved the cytokine at the amino terminus yielding a smaller peptide that retained the C-terminal epitope.

Salmon protamine = assay: Hydrolysis of salmon protamine sulfate (ninhydrin assay); format: biochemical; conditions: 20 mM Tris-HCl, pH 7 or 8, 30 min at 37° C.
Description: Specific activity of the purified enzymes was determined by measuring hydrolysis of protamine sulfate and D-val-leu-lys-pNA. For the former, enzyme-substrate mixtures were prepared in 20 mM Tris-HCl, pH 7 or 8, and incubated for 30 min at 37° C. After precipitation with 14% trichloroacetic acid and removal of precipitated protein by centrifugation, the reaction mixtures were diluted in 500 mM sodium citrate buffer, pH 5, combined with 2% ninhydrin and boiled for 30 min. After dilution in 50% isopropanol, absorbance was measured at 570 nm wavelength, and results were referenced to leucine as a standard. Hydrolysis of D-val-leu-lys-pNA in 20 mM Tris-HCl buffer, pH 7, was determined by measuring absorbance at 405 nm wavelength every 10 sec over 10 min and calculating the change in absorbance (mOD units) per min per μg protein.
Protamine sulfate from salmon (Sigma, St. Louis, Mo.): 1% (10 mg/ml) solution in reaction buffer. Fushima et al use 2% and denature the protein by boiling for 30 min in 100 mM phosphate buffer, pH 7.0. […]
Procedure • 1. […] Read Absorbance at 570 nm (purple color) and calculate nanomoles by reference to a standard curve prepared with leucine. […] Activity of enzyme is expressed as nanomoles of leucine equivalents released per milligram of protein (endpoint assay) or nanomoles of leucine equivalents/min/μg protein (kinetic assay). • 10. […]

human TNF-α [2] = biological target: T1, human TNF-α; assay: Bioactivity of protease-treated human TNF-α in the C2C12 cell assay (nitrite); format: cell-based; set-up: key to Inactivation of Human TNF-α: +: Indicates that the protease inactivated the cytokine; ^a: Cleavage of the cytokine occurred without inactivation; conditions: for Effect on bioactivity of human TNF-α: C2C12 cells costimulated with mouse IFN-γ, nitrite
Description: Effects of purified A. oryzae proteases on the bioactivity of human TNF-α (A) protease powder prepared according to Example 1 (preparation); (B) alkaline protease; (C) 26 kDa protease; and (D) deuterolysin. 50 ng quantities of TNF-α were incubated at 37° C. for 24 hours with the indicated quantities (∘=buffer alone; […]=5 ng; ▪=10 ng) of: protease powder prepared according to Example 1 (preparation); alkaline protease; 26 kDa protease; and deuterolysin. The reactions were then stopped by addition of FBS and samples were added to C2C12 cells that had been costimulated with mouse IFN-γ. Twenty-four hours later, nitrite was measured in culture fluids.
Protease-treated human TNF-α was then tested for its bioactivity in the C2C12 cell assay. […] (FIG. 12A-D)
The protease powder prepared according to Example 1 inactivates mouse recombinant TNF-α by limited proteolysis. (FIG. 16 A-B) This property was established by measuring the loss of activity of TNF-α in a bioassay in which the cytokine was used to coactivate mouse myoblast C2C12 cells for the production of NO by transcriptional activation of the inducible NO synthase (iNOS) gene. The assay can be used to measure either TNF-α or IFN-γ activity by adding test samples containing one of the cytokines to cells stimulated with an excess of the other cytokine. Nitrite is a stable endproduct of NO produced by the cells. […] (FIG. 16A-B).

| Molecule | Cleavage of human TNF-α (human TNF-α [1]) | Specific activity, Salmon protamine (Salmon protamine) | Effect on bioactivity of human TNF-α (human TNF-α [2]) | Inactivation of Human TNF-α (human TNF-α [2]; Table 7 summary) |
| --- | --- | --- | --- | --- |
| Alkaline Protease: Aspergillus oryzae alkaline protease (oryzin), SEQ ID NO: 2, purified from the protease powder of Example 1 (protein, listed as Aspergillus oryzae) MQSIKRTLLLLGAILPAVLGAPVQETRRAAEKLPGKYIVTFKPGIDEAKIQEHTTWATNIHQRSLERRGATGGDLPVGIERNYKINKFAAYAGSFDDATIEEIRKNEDVAYVEEDQIYYLDGLTTQKSAPWGLGSISHKGQQSTDYIYDTSAGEGTYAYVVDSGVNVDHEEFEGRASKAYNAAGGQHVDSIGHGTHVSGTIAGKTYGIAKKASILSVKVFQGESSSTSVILDGFNWAANDIVSKKRTSKAAINMSLGGGYSKAFNDAVENAFEQGVLSVVAAGNENSDAGQTSPASAPDAITVAAIQKSNNRASFSNFGKVVDVFAPGQDILSAWIGSSSATNTISGTSMATPHIVGLSLYLAALENLDGPAAVTKRIKELATKDWKDVKGSPNLLAYNGNA | produced a similar pattern of cleavage | 951 nmoles Leucine/30 min./μg protein | selectively inactivated human TNF-α | + |
| 26 kDa Protease: A. oryzae protease cloned recently by Novozyme, labeled the 26 kDa protease, SEQ ID NO: 3 (protein, listed as Aspergillus oryzae) HASADAWASSKAISSTSSPSSFKMRFISVSSLLLALAPALNAVPVEVAGSAQGLDVTLSQVGNTRIKAWKNTGSEDVTFVHLNFFKDAAPVQKVSLFRNATEVQFQGIKQRLITEGLSDDALTTLAPGATIEDEFDIASTSDLSEGGTITINSNGLVPITTDNKVTGYIPFTSNELSIDVDAAEAASVTQAVKILERRTKVTSCSGSRLSALQTALRNTVSLARAAATAAQSGSSSRFQEYFKTTSSSTRSTVAARLNAVANEAASTSSGSTTYYCSDVYGYCSSNVLAYTLPSYNIIANCDLYYSYLPALTSTCHAQDQATTTLHEFTHAPGVYSPGTDDLGYGYSAATALSASQALLNADTYALFANAVNLNC | to a lesser extent | 679 nmoles Leucine/30 min./μg protein | did not significantly alter the biological activity of the cytokine |  |
